Assay [1] concerns the target T1, Human CD137-his (human, UniProt Q07011 24-186).
T1 construct: Bought reagent; also called Human CD137-His (Sino Biological, 10041-H08H)
The experiment in a line: BLI (Octet Red 96), antibody captured on AHC sensor, 1:1 Langmuir fit. How it is done:
(§1) Biolayer interferometry was used to measure the association and dissociation constants for the binding kinetics of bispecific antibodies. The binding kinetics was measured on a FortieBio Octet Red 96 at 30° C. and analyzed with the FortieBio Data Analysis 9.0 software. Anti-human-IgG Fc (AHC) sensor was used to capture the bispecific or control antibodies. Double binding was performed by association with the first antigen, then dissociation, and association with the second antigen, then dissociation. A regeneration cycle with 20 mM glycine, pH 1.5 was used between different antibody cycles. The 1×kinetic buffer (FortieBio) was used for baseline. Human CD137-His (Sino Biologicals Cat: 10041-H08H) and rhesus CD137-His protein (Sino Biologicals Cat: 90847-K08H) were diluted into kinetic buffer in a series of concentrations. A kinetic buffer only well was set as a reference well for subtraction during data processing. Data were fitted with a 1:1 Langmuir model for association and dissociation using Rmax linked global fitting for each antibody-antigen binding. Human CD137-his is a recombinant CD137 protein with a poly histidine tag fused to C-terminus of human CD137 antigen (Sino Biological, 10041-H08H). Human EGFR-his is a recombinant EGFR protein with a poly histidine tag fused to C-terminus of human EGFR antigen (Acro Biosystem, EGR-H5222-100 ug).

Assay [2] has as its target T2, Human EGFR-his (human, UniProt P00533 25-645).
T2 construct: Bought reagent; also called EGFR-His (Acro Biosystem, EGR-H5222-100 ug)
Described as above. On the procedure:
as §1

In assay [3] the target is T1, Human CD137-his. The experiment in a line: BLI (Octet), second round, antibody captured on AHC sensor. How it is done:
(§2) Biolayer interferometry was used to measure the association and dissociation constants for the binding kinetics of the anti-CD137 antibodies. The binding kinetics was measured on a FortieBio Octet Red 96 at 30° C. and analyzed with the FortieBio Data Analysis 9.0 software. Anti-human-IgG Fc (AHC) sensor was used to capture the anti-CD137 antibodies or control antibodies. A kinetic buffer only well was set as a reference well for subtraction during data processing. Data were fitted with a 1:1 Langmuir model for association and dissociation using Rmax linked global fitting for each antibody-antigen binding. Human CD137-his is a recombinant CD137 antigen with a poly histidine tag fused to C-terminus of human CD137 antigen (Sino Biological, 10041-H08H). Cyno CD137-his is a recombinant CD137 antigen with a poly histidine tag fused to C-terminus of cynomolgus CD137 antigen (Sino Biological, 90847-K02H-100).

For assay [4], the target named is T3, mouse CD137 (mouse, UniProt P20334 24-187, limits assumed).
T3 sequence (looked up): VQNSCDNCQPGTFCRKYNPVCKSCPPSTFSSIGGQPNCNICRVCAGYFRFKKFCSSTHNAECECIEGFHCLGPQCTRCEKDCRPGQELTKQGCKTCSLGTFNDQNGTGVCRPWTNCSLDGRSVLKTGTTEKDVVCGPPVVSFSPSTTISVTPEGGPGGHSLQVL
The experiment in a line: biolayer interferometry (Octet Red 96), antibody captured on AHC sensor. In general terms: In BLI a coated tip is dipped into the sample, and binding shifts an interference pattern.

Assay [5] concerns the target T4, Cyno CD137-his (cynomolgus monkey, UniProt A9YYE7 24-186).
T4 construct: Bought reagent; also called cynomolgus monkey CD137; cynomolgus CD137 (Sino Biological, 90847-K02H-100)
T4 sequence: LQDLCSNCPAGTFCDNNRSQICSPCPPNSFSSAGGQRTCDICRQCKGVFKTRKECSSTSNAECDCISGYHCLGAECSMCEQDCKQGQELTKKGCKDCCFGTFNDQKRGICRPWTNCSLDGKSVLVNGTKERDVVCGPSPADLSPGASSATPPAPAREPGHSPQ
The experiment in a line: BLI (Octet Red 96), antibody captured on AHC sensor, 1:1 Langmuir fit. How it is done:
as §2

Assay [6] addresses T1, Human CD137-his. The assay is described as above. On the procedure: as §2
This is another data set of the same source.

B1: Anti-CD137 scFv x anti-EGFR IgG1 HCC (bispecific antibody)
heavy: not shown
light: EIVLTQSPATLSLSPGERATLSCRASQSIGTNIHWYQQKPGQAPRLLIKYASESISGIPARFSGSGSGTDFTLTISSLEPEDFAVYYCQQNNNWPTSFGGGTKVEIKRTVAAPSVFIFPPSDEQLKSGTASVVCLLNNFYPREAKVQWKVDNALQSGNSQESVTEQDSKDSTYSLSSTLTLSKADYEKHKVYACEVTHQGLSSPVTKSFNRGEC
notes: The tie rests on the label only; also called 2-9scFv-αEGFR2-HC-C; anti-CD137×EGFR bispecific antibody
For the molecule B1, in assay [1], the affinity, expressed as Kd, was 6.25 nM; the koff (commonly a measure of how fast the partners let go of each other) was 0.000116 s⁻¹; the kon (in general, the rate constant with which the complex forms) is 18600 M⁻¹ s⁻¹. Also, in assay [2], the Kd (commonly the free concentration of one partner at which half of the binding sites on the other are occupied at equilibrium, for simple one-to-one binding) came to 2.45 nM; the koff worked out at 0.000991 s⁻¹; the on-rate constant (kon) turned out to be 404000 M⁻¹ s⁻¹.

B2: Anti-CD137 2-9 IgG2 (antibody, V domains shown)
VH: QVQLVQSGAEVKKPGASVKASCKASGFNIQDTYIHWVRQAPGQGLEWMGRIDPANGNSEYAQKFQGRVTMTRDTSTSTVYMELSSLRSEDTAVYYCTTGNLHYALMDYWGQGTSVTVSS
VL: DIQMTQSPSSVSASVGDRVTITCKASQPINTYLSWYQQKPGKAPKLLIYRVNRKVDGVPSRFSGSGSGTDFTLTISSLQPEDFATYYCLQYLDFPYTFGGGTKLEIKR
notes: also called clone 2-9 IgG2 wt; 2-9 IgG2 wildtype
As to B2, the equilibrium dissociation constant (Kd) amounted to 5.5 nM in assay [3], 4.52 nM in assay [1], 2.76 nM in assay [5] and 9.33 nM in assay [6]. The dissociation rate constant (koff) came out at 0.000314 s⁻¹ in assay [3], 0.000299 s⁻¹ in assay [1], 0.000712 s⁻¹ in assay [5] and 0.000869 s⁻¹ in assay [6]. The kon in assay [3] came to 57100 M⁻¹ s⁻¹; in assay [1], 66200 M⁻¹ s⁻¹; in assay [5] it was 258000 M⁻¹ s⁻¹; in assay [6] it was 93100 M⁻¹ s⁻¹. In addition, in assay [4], the binding result was “no binding”.

Source of the values: patent publication US20230067770A1 (SHANGHAI HENLIUS BIOTECH, published 2023).
